Measured values: patent US20190248902A1 (published 2019)
Blank lines part the entries; values can stand above or below the binder they belong to.

What was measured:
[1] = target: T1, recombinant, soluble human ASGR-1 (human, UniProt P07306 62-291); assay: Octet BLI dissociation, pH 5.6 plus calcium
T1 construct: biotinylated in the binning assay; also called soluble huASGR-1; Soluble ASGR-1 (Amgen)
T1 sequence: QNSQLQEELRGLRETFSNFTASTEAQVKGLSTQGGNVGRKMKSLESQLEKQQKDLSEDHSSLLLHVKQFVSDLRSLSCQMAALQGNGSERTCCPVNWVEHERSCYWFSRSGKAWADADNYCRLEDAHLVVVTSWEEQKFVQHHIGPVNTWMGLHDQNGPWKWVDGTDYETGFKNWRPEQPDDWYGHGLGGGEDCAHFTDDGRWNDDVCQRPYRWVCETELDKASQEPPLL
Summary of the method: (§1)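 Antibodies were captured on anti-human Fc biosensors, and soluble ASGR-1 (6 ug/ml) was associated for 2 min in Tris buffer containing 1 mM CaCl2 at pH 7.4, followed by 10 min dissociation under each test condition. The signal at the end of association was set as 100%. Percent ASGR-1 still bound after 1 min of dissociation was compared with the pH 7.4 plus calcium control, and >10% extra dissociation was scored as sensitive.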

[2] = target: T1, recombinant, soluble human ASGR-1; assay: Octet BLI dissociation, pH 5.6 minus calcium
Summary of the method: as §1

[3] = target: T1, recombinant, soluble human ASGR-1; assay: Octet BLI dissociation, pH 7.4 minus calcium
Summary of the method: as §1

B1: 60G2 (antibody, V domains shown)
VH: QVQLVESGGGVVQPGRSLRLSCAASGFTFSSYGMHWVRQAPGKGLEWVAVIWYDGSNKYYADSVKGRFTISRDNSKNTLYLQMNSLRAEDTAVYYCARRYSRSWTGGMDVWGQGTTVTVSS
VL: DIVMTQTPLSLSVTPGQSASISCKSSQSLLHSEGKTYLYWYLQKPGQPPQLLIYEVSNRISGVPDRFSGSGSGTDFTLKISRVEAEDVGVYYCMQSIQLPLTFGGGTKVEIK
notes: hybridoma mAb
% Change Compared to pH 7.4 + Calcium [1]: 7% | % Change Compared to pH 7.4 + Calcium [2]: 31% | % Change Compared to pH 7.4 + Calcium [3]: 36%

B2: 173C11 (antibody, V domains shown)
VH: QVQLVESGGGVVQPGRSLRLSCAASGFTFSSYGIHWVRQAPGKGLEWVALIFYDGSNKYYADSVKGRFTISRDNSKNTLYLHMSSLRAEDTAVYYCARRYSSSWSGGMDVWGQGTTVTVSS
VL: DIVMTQTPLSLSVTPGQPASISCKSSQSLLHSEGKTYLYWYLQKPGQPPQLLIYEVSHRFSGVPDRFSGSGSGTDFTLKISRVEAEDVGVYYCMQSIQLLTFGGGTKVEIK
notes: hybridoma mAb
% Change Compared to pH 7.4 + Calcium [1]: 0% | % Change Compared to pH 7.4 + Calcium [2]: 29% | % Change Compared to pH 7.4 + Calcium [3]: 17%

B3: 49C1 (antibody, V domains shown)
VH: QVQLVESGGGVVQPGRSLRLSCTASGFTFSSYGMHWVRQAPGKGLEWVAVIWYDGSNKYYADSVKGRFTISRDNSKNTLYLQMNSLRAEDTAVYYCARRYSSSWSGGMDVWGQGTTVTVSS
VL: DIVMTQTPLSLSVTPGQPASISCKSSQSLLHREGKTYLYWYLQKPGQAPQFLIFEVSHRFSGVPDRFSGSGSGTDFTLKISRVEAEDVGVYYCMQSIQIPITLGQGTRLEIK
notes: hybridoma mAb
% Change Compared to pH 7.4 + Calcium [1]: 23% | % Change Compared to pH 7.4 + Calcium [2]: 64% | % Change Compared to pH 7.4 + Calcium [3]: 72%

B5: 47C1 (antibody, V domains shown)
VH: QVQLVESGGGVVQPGRSLRLSCAASGFTFSDYGMHWVRQTPGKGLEWVAVIWYDGSNKYYADSVKGRFTISRDNSKNTLFLQMNSLRDEDTAVYYCARRYSRSWVGGMDVWGQGTTVTVSS
VL: DIVMTQTPLSLSVTPGQPASISCTSSQSLLHSEGKTYLYWYLQKPGQPPQLLIYEVSNRFSGVPDRFSGSGSGTDFTLKISRVEAEDVGVFYCMQSIQLPWTFGQGTKVEIK
notes: hybridoma mAb
% Change Compared to pH 7.4 + Calcium [1]: -1% | % Change Compared to pH 7.4 + Calcium [2]: 10% | % Change Compared to pH 7.4 + Calcium [3]: 13%

B12: 51E3 (antibody, V domains shown)
VH: QVQLVQSGAEVKKPGASVKVSCKASGYTFNSYGISWVRLAPGQGLEWMGWISAYNGNTKNAQRFQGRVTMTTDTSTSTAYMELRSLRSDDTAVYYCARHDFWSGYYKGMDVWGQGTTVTVSS
VL: not shown
notes: hybridoma mAb
% Change Compared to pH 7.4 + Calcium [1]: 16% | % Change Compared to pH 7.4 + Calcium [2]: 42% | % Change Compared to pH 7.4 + Calcium [3]: 65%

B13: 53E8 (antibody, V domains shown)
VH: QVQLVQSGAEVKKPGASVKVSCKASGYTFNSYGISWVRQAPGQGLEWMGWISAYNGNTKFAQKLQGRVTMTTDTSTSTAYMELRSLRSDDTAVYYCARHDFWSGYYKGMDVWGQGTTVTVSS
VL: not shown
notes: hybridoma mAb
% Change Compared to pH 7.4 + Calcium [1]: 20% | % Change Compared to pH 7.4 + Calcium [2]: 64% | % Change Compared to pH 7.4 + Calcium [3]: 68%

Continued, values first:

% Change Compared to pH 7.4 + Calcium [1]: -3% | % Change Compared to pH 7.4 + Calcium [2]: 12% | % Change Compared to pH 7.4 + Calcium [3]: 14%
B4: 60C12 (antibody, V domains shown)
VH: QVQLVESGGGVVQPGRSLRLSCAASGFTFSSYGMHWVRQAPGKGLEWVAVIWYDGSNKYYVDSVKGRFTISRDNSKNTLYLQMNSLRAEDTAVYYCARRYSRSWTGGMDVWGQGTTVTVSS
VL: DIVMTQTPLSLSVTPGQPASISCKSSQSLLHSEGKTYLYWYLQKPGQPPQFLIYEVSNRFSGVPDRFSGSGSGTDFTLKISRVEAEDVGIYYCMQSIKYPLTFGGGTKVEIK
notes: hybridoma mAb

% Change Compared to pH 7.4 + Calcium [1]: 0% | % Change Compared to pH 7.4 + Calcium [2]: 45% | % Change Compared to pH 7.4 + Calcium [3]: 25%
B6: 179C2 (antibody, V domains shown)
VH: QVQLVESGGGVVQPGRSLRLSCAASGFTFSSYGMHWVRQAPGKGLEWVALIFYDGSNKYYADSVKGRFTISRDNSKNTLFLQMNSLRAEDTAVYYCARRYSGSWSGGMDVWGQGTTVTVSS
VL: DIVMTQTPLSLSVTPGQPASISCKSSQSLLHSEGKTYLYWYLQKPGQPPQLLIYEVSHRFSGVPDRFSGSGSGTDFTLKISRVEAEDVGVYYCMQSIQVLTFGGGTKVEIK
notes: hybridoma mAb

% Change Compared to pH 7.4 + Calcium [1]: 10% | % Change Compared to pH 7.4 + Calcium [2]: 47% | % Change Compared to pH 7.4 + Calcium [3]: 45%
B7: 148H10 (antibody, V domains shown)
VH: QVQLVESGGGVVQPGRSLRLSCAASGFTFSSYGMHWVRQAPGKGLEWVAVIWYDGSNKYYGDSVKGRFTISRDNSKNTLYLQMNSLRAEDTAVYYCARRYSSSWSGGMDVWGQGTTVTVSS
VL: DIVMTQTPLSLSVTPGQPASISCKSSQSLLHSEGKTYLYWYLQKPGQPPQLLIYEVSYRVSGVPDRFSGSGSGTDFTLKISRVEAEDVGVYYCMQSIQLPLTFGGGTKVEIK
notes: hybridoma mAb

% Change Compared to pH 7.4 + Calcium [1]: -7% | % Change Compared to pH 7.4 + Calcium [2]: -1% | % Change Compared to pH 7.4 + Calcium [3]: 1%
B8: 72G9 (antibody, V domains shown)
VH: EVQLVESGGGLVKPGGSLRLSCAASGFTFSSYSMNWVRQAPGKGLEWVSSISGSSSYIYYADSVKGRFTISRDNAKNSLYLQMNSLRAEDTAVYFCARGGSRGFDPWGQGTLVTVSS
VL: DIQMTQSPSSLSASVGDRVTITCRASQSITSYLNWYQQKPGKAPKLLIYTASSLQSGVPSRFSGSGSGTDFTLTISSLQPEDFATYYCQQSHSFPFTFGPGTKVDIK
notes: hybridoma mAb

% Change Compared to pH 7.4 + Calcium [1]: 33% | % Change Compared to pH 7.4 + Calcium [2]: 62% | % Change Compared to pH 7.4 + Calcium [3]: 100%
B9: 73G1 (antibody, V domains shown)
VH: QVQLVESGGGVVQPGRSLRLSCAGTGFTFSYYGMHWVRQAPGKGLEWVAVTTYDGSNKYYADSVKGRFTSSRDNSKNTLYLQMNSLRAEDTAVYHCARETGTWAFDIWGQGTMVTVSL
VL: QTVVTQEPSFSVSPGGTVTLTCGLSSGSVSTSYYPSWYQQTPGQAPRTLIYNTNTRSSGVPDRFSGSILGNKAALTITGAQADDESDYYCVLYMGSAIWVFGGGTKLTVL
notes: hybridoma mAb

% Change Compared to pH 7.4 + Calcium [1]: 7% | % Change Compared to pH 7.4 + Calcium [2]: 61% | % Change Compared to pH 7.4 + Calcium [3]: 34%
B10: 65D5 (antibody, V domains shown)
VH: QVQLVQSGAEVKKPGASVKVSCKASGYTFPSYGISWVRQAPGQGLEWMGWISAYSGNTNYAQKLQGRVTMTTDTSTSTAYMELRSLRSDDTAVYFCARGEAVAVFDPWGQGTLVTVSS
VL: DIQMTQSPSSLSASVGDRVTITCRASQDINNYLAWFQQKPGKAPRSLIYAASSLHSGVPSQFSASGSGSDFTLTISSLQPEDFATYYCPLYKSYPLTFGPGTKVDIK
notes: hybridoma mAb

% Change Compared to pH 7.4 + Calcium [1]: 36% | % Change Compared to pH 7.4 + Calcium [2]: 52% | % Change Compared to pH 7.4 + Calcium [3]: 81%
B11: 66H11 (antibody, V domains shown)
VH: QVQLVQSGAEVKKPGASVKVSCKASGYTFATYGISWVRQAPGQGLEWMGWISAYNGNTNYAQKLQGRVTMTTDTSTSTAYMELRSLRSDDTAVYYCARGEAVAVFDPWGQGTLVTVSS
VL: DIQMTQFPSSLFAFVGDRVTITCPASQGISNYLAWFQQKPGKAPKSLIYGAFNLHSGVPSKFSGSGFGTDFTLTINSLQPEDFANYYCQQYSCYPFTFGHGTKVDIK
notes: hybridoma mAb

% Change Compared to pH 7.4 + Calcium [1]: 24% | % Change Compared to pH 7.4 + Calcium [2]: 75% | % Change Compared to pH 7.4 + Calcium [3]: 79%
B14: 54E9 (antibody, V domains shown)
VH: QVQLVQSGAEVKKPGASVKVSCKASGYTFNSYGISWVRLAPGQGLEWMGWISAYNGNTKNAQKLQGRVTMTTDTSTSTAYMELRSLRSDDTAVYYCARHDFWSGYYKGMDVWGQGTTVTVSS
VL: not shown
notes: hybridoma mAb
